According to publication PMC12421842:

Molecular target: T1, HicB (HicB-His) (Neisseria gonorrhoeae FA1090) (UniProt Q5F6D2)
T1 sequence: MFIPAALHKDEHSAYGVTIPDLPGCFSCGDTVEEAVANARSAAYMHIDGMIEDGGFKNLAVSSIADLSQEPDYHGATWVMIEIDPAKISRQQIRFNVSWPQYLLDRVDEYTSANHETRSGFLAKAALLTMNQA
Experiment: competition
Details: EMSA: 20 mM HEPES pH 7.6, 1 mM EDTA, 10 mM (NH4)2SO4, 1 mM DTT, 0.2% Tween-20, 30 mM KCl, 1.25 ng/uL calf thymus DNA, 30 min at 30 C

## TTCACCCTTGCCTGTGCTGCCAAAGCAGCCATCGGCGGTTTTGCTTTCTGTTCCACTTTCCGTCGCGTTACCGCGCCCGGCCGTTAACCGGCATTCTACCCTGCGGAGCCCGGACTTTCCTCCCCGTAT (double strand) [rnpB fragment]
  binding: no binding
